A short description of the data set: protein stability index of a GFP-peptide fusion (yeast GPS) (PSI 1-4); higher = more stable; sorted into four equal gates, so the index is relative within each strain. The procedure, abridged:
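Plasmids isolated from each sorting gate were PCR-amplified and Illumina-sequenced, and barcodes assigned the reads to strains. The gates, four of equal size, were set by GFP/Cherry fluorescence ratio on mid-log cultures in leucine-free medium. These cultures were yeast carrying a pooled library of tiled 17-residue yeast protein peptides fused downstream of GFP on a plasmid that also expresses Cherry. The protein stability index is the sum of every gate's read frequency times its gate number.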

± gives the uncertainty stated by the source.

Protein stability index data for 39 sequences are collected here from the supplement of paper PMC9732359.

Consider LEKCEAEFKKRKIEAET [YCS4], for which the protein stability index is, setting by setting: (doa10∆) 2.79 ± 0.14; (pdr5∆) 3.17 ± 0.084; (san1∆) 3.3 ± 0.21; (ubr1∆) 2.98 ± 0.14.
For LEKGEIELSDGSTFKVN [YJL039C/NUP192] the same measures were 3.02 ± 0.079, 3.1 ± 0.067, 2.83 ± 0.073 and 2.95 ± 0.052.
On to LEKLVDHHPEGLSAREA [PRE10], for which the protein stability index is, setting by setting: (doa10∆) 2.92 ± 0.068; (pdr5∆) 2.9 ± 0.059; (san1∆) 2.65 ± 0.067; (ubr1∆) 2.62 ± 0.058.
As for LELAGMDALYEKIWFAI [SIR3], the protein stability index stood at 1.41 ± 0.095 (doa10∆), 1.53 ± 0.068 (pdr5∆), 1.21 ± 0.11 (san1∆) and 1.15 ± 0.052 (ubr1∆).
On to LELQVAKTFIDLESSSP [RPS7B], for which the protein stability index came to 3.17 ± 0.071 (doa10∆), 3.2 ± 0.063 (pdr5∆), 2.96 ± 0.11 (san1∆) and 3.11 ± 0.064 (ubr1∆).
Take LELRNSVMDDILEMMPE [PRP8]: the protein stability index came out at 3.53 ± 0.12 (doa10∆), 3.26 ± 0.12 (pdr5∆), 3.15 ± 0.09 (san1∆) and 3.37 ± 0.068 (ubr1∆).
For LEQDLHFENAKVIDLDT [YIL149C/MLP2] the same measures were 3.08 ± 0.18, 3.32 ± 0.16, 2.65 ± 0.23 and 3.13 ± 0.11.
For LEQREQNENLPSDKSDS [SSN2] the same measures were 3.16 ± 0.07, 3.09 ± 0.071, 3.04 ± 0.057 and 3.12 ± 0.056.
As for LERIVQIMQNPTHYKIP [RPS18A], the protein stability index reads like this: (doa10∆) 2.61 ± 0.1; (pdr5∆) 3.1 ± 0.11; (san1∆) 2.9 ± 0.065; (ubr1∆) 2.74 ± 0.12.
For LESADKQLEKRDYQRIN [POP4] the same measures were 2.71 ± 0.052, 2.72 ± 0.055, 2.64 ± 0.065 and 3.18 ± 0.059.
Turning to LESKMSEVGDAFIFGLQ [SMC3], the protein stability index was determined as 3.29 ± 0.061 (doa10∆), 3.28 ± 0.06 (pdr5∆), 3.31 ± 0.041 (san1∆) and 3.34 ± 0.052 (ubr1∆).
LEVFHHFFKWIEFIVYH [SRB8]: the protein stability index was 1.13 ± 0.054 (doa10∆), 1.11 ± 0.047 (pdr5∆), 1.08 ± 0.17 (san1∆) and 1.06 ± 0.041 (ubr1∆).
Take LEWLENPSNTPDKDYLL [FAS1]: the protein stability index by setting is: (doa10∆) 3.16 ± 0.11; (pdr5∆) 3.21 ± 0.088; (san1∆) 3.27 ± 0.071; (ubr1∆) 3.29 ± 0.11.
Take LFGGRHYLFNTFTFTAH [SWP82]: the protein stability index turned out to be 2.03 ± 0.042 (doa10∆), 2.1 ± 0.035 (pdr5∆), 1.69 ± 0.061 (san1∆) and 1.82 ± 0.024 (ubr1∆).
For LFIGLFTRPLFVLLEIE [YCS4], the protein stability index is, setting by setting: (doa10∆) 1.82 ± 0.092; (pdr5∆) 1.98 ± 0.083; (san1∆) 2.11 ± 0.15; (ubr1∆) 1.61 ± 0.093.
With LFKNYRFNFISKYFIID [YMR129W/POM152], the protein stability index reads like this: (doa10∆) 1.97 ± 0.068; (pdr5∆) 1.41 ± 0.074; (san1∆) 1.32 ± 0.1; (ubr1∆) 1.42 ± 0.061.
As to LFLYKELVKAHLGERAA [RPC82], the protein stability index came out at 2.72 ± 0.086 (doa10∆), 2.96 ± 0.09 (pdr5∆), 2.88 ± 0.061 (san1∆) and 2.77 ± 0.11 (ubr1∆).
Take LFQVESAPKISSEIDRE [SIR4]: the protein stability index (doa10∆) is 2.35 ± 0.05, the protein stability index (pdr5∆) came out at 2.61 ± 0.062, the protein stability index (san1∆) was 2.37 ± 0.053 and the protein stability index (ubr1∆) came to 2.42 ± 0.045.
On the same counts, the results for LFQVEYSLEAIKLGSTA [PUP2] are 1.61 ± 0.075, 2.32 ± 0.069, 2.08 ± 0.12 and 2.2 ± 0.053.
As to LFSLEKPNLNYFKSILL [SWI1], the protein stability index reads like this: (doa10∆) 1.38 ± 0.056; (pdr5∆) 1.59 ± 0.055; (san1∆) 1.62 ± 0.082; (ubr1∆) 1.86 ± 0.051.
In the case of LFVCNKDPDVPLVLLQQ [POP3], the protein stability index runs as follows: (doa10∆) 2.57 ± 0.082; (pdr5∆) 2.32 ± 0.077; (san1∆) 2.26 ± 0.11; (ubr1∆) 2.27 ± 0.058.
Turning to LGEFSITYTPVRHGRAG [RPS15], the protein stability index reads like this: (doa10∆) 1.85 ± 0.15; (pdr5∆) 1.85 ± 0.12; (san1∆) 1.61 ± 0.15.
On to LGGDSDEANIEIDPLTG [BRN1], for which the protein stability index stood at 3.05 ± 0.18 (doa10∆), 3.48 ± 0.27 (pdr5∆) and 2.92 ± 0.18 (san1∆).
For the sequence LGIKKEKRIQYAKDILQ [RPB2], the protein stability index was determined as 2.01 ± 0.059 (doa10∆), 2.12 ± 0.061 (pdr5∆), 1.64 ± 0.094 (san1∆) and 1.99 ± 0.041 (ubr1∆).
With LGKGGAKRHRKILRDNI [HHF1], the protein stability index (doa10∆) is 3.36 ± 0.26, the protein stability index (pdr5∆) amounted to 3.21 ± 0.17, the protein stability index (san1∆) was 3.4 ± 0.19 and the protein stability index (ubr1∆) was determined as 2.99 ± 0.14.
Regarding LGMGKAVEKTLALGCHF [POP7], the protein stability index reads like this: (doa10∆) 1.98 ± 0.097; (pdr5∆) 2.16 ± 0.08; (san1∆) 2.6 ± 0.1; (ubr1∆) 2.38 ± 0.088.
On to LGNEKNQASTSKRVYKI [CDC53], for which the protein stability index was 2.83 ± 0.12 (pdr5∆) and 2.92 ± 0.096 (san1∆).
As to LGRLNKLRKIAISKKNK [LIN1], the protein stability index turned out to be 2 ± 0.083 (doa10∆), 1.74 ± 0.096 (pdr5∆), 1.39 ± 0.23 (san1∆) and 1.47 ± 0.072 (ubr1∆).
On the same counts, the results for LHGLRSFYDAIFFNIPL [YJL039C/NUP192] are 2.61 ± 0.039, 2.24 ± 0.042, 2.309 ± 0.022 and 1.9 ± 0.034.
In the case of LHLAVGKKWFEVSQFLI [NAS6], the protein stability index (doa10∆) came to 2.12 ± 0.076, the protein stability index (pdr5∆) worked out at 1.63 ± 0.059, the protein stability index (san1∆) is 1.63 ± 0.091 and the protein stability index (ubr1∆) amounted to 1.51 ± 0.073.
Turning to LHPYNSRGLFEKKLMQD [YDL116W/NUP84], the protein stability index runs as follows: (doa10∆) 2.89 ± 0.18; (pdr5∆) 3.28 ± 0.16; (san1∆) 2.86 ± 0.1; (ubr1∆) 2.91 ± 0.13.
In turn, LHVLVAHKLKKSLDSIP [FAS2] returned a protein stability index (doa10∆) of 2.31 ± 0.091, a protein stability index (pdr5∆) of 2.1 ± 0.088, a protein stability index (san1∆) of 1.83 ± 0.24 and a protein stability index (ubr1∆) of 1.68 ± 0.073.
On the same counts, the results for LICPQYGTENKDGEDII [CSL4] are 3.23 ± 0.15, 3.41 ± 0.13, 3.12 ± 0.14 and 3.28 ± 0.13.
Turning to LICQNNLNAFVDFSKYN [SRP72], the protein stability index was found to be 3.1 ± 0.077 (doa10∆), 2.99 ± 0.063 (pdr5∆), 3.11 ± 0.044 (san1∆) and 2.54 ± 0.061 (ubr1∆).
With LIEEEVEQDEGQCRTEL [YCS4], the protein stability index came to 3.59 ± 0.13 (doa10∆), 3.53 ± 0.15 (pdr5∆) and 3.45 ± 0.12 (ubr1∆).
For LIEKLQGFSKDTFELIK [YDL116W/NUP84], the protein stability index was 3.21 ± 0.12 (doa10∆), 3.22 ± 0.093 (pdr5∆), 3.29 ± 0.064 (san1∆) and 3.08 ± 0.07 (ubr1∆).
Regarding LIENGASVRIKDKFNQI [NAS6], the protein stability index runs as follows: (pdr5∆) 3.12 ± 0.18; (ubr1∆) 3.27 ± 0.065.
For the sequence LIFGTIASKMSLAPEAD [RPT3], the protein stability index came out at 2.66 ± 0.044 (doa10∆), 2.78 ± 0.064 (pdr5∆), 2.75 ± 0.041 (san1∆) and 2.65 ± 0.038 (ubr1∆).
For LIGSIRFPTKFVTQFRH [RET1], the protein stability index worked out at 1.57 ± 0.056 (doa10∆), 1.41 ± 0.057 (pdr5∆), 1.29 ± 0.16 (san1∆) and 1.31 ± 0.048 (ubr1∆).
